Our source for the enrichment and response values is paper PMC10377357 (2023).

B1: Rps2(1–145)-TurboID [S. cerevisiae] / Tsr4 [S. cerevisiae (endogenous in YDK11-5A)] (parent complex)
chain 1: MSAPEAQQQKRGGFGGRNRGRPNRRGPRNTEEKGWVPVTKLGRLVKAGKITTIEEIFLHSLPVKEFQIIDTLLPGLQDEVMNIKPVQKQTRAGQRTRFKAVVVVGDSNGHVGLGIKTAKEVAGAIRAGIIIAKLSVIPIRRGYWG
chain 2: MSKIEELPPSDTDDHSYSSKPGDVFLAFVDAPVKETDDILVEDSFIGGEPKWLHPDSEPPAELLKCGACKSADNMKLLLQAFSPLDDEQMSAIQQRLGINNMSYINPQDDRVLYVFLCTECQRKGNSVRCIRGVKKNKNVDSLSEKMASTSLEKDFQINPFDLSNNSDSKCNAFSSNPFGGANANPFGADSINSNISQSKDEGKKKESATVSAKTARKLHDLQKDKEYDGNKCFKSCLLYVEEETFKNKKPAHLQLPKNLKIDKEALDLTGDEDLEKDPIKLDPRTEKLSKFLDDDTFQKFQEVVGYNPLQVLRYDLGGKPLLYAETKVDILSTVPRPGYNPSSQRIFEMQLMPKMIFDLEEVVSVDNGMEWGTILVFTDVENYMPEFDEHGVGYVEECVKVQWESRT
B2: Rps2(1–145)-TurboID [S. cerevisiae] / Pse1 [S. cerevisiae (endogenous in the yeast strains)] (parent complex)
chain 1: B1 chain 1
chain 2: MSALPEEVNRTLLQIVQAFASPDNQIRSVAEKALSEEWITENNIEYLLTFLAEQAAFSQDTTVAALSAVLFRKLALKAPPSSKLMIMSKNITHIRKEVLAQIRSSLLKGFLSERADSIRHKLSDAIAECVQDDLPAWPELLQALIESLKSGNPNFRESSFRILTTVPYLITAVDINSILPIFQSGFTDASDNVKIAAVTAFVGYFKQLPKSEWSKLGILLPSLLNSLPRFLDDGKDDALASVFESLIELVELAPKLFKDMFDQIIQFTDMVIKNKDLEPPARTTALELLTVFSENAPQMCKSNQNYGQTLVMVTLIMMTEVSIDDDDAAEWIESDDTDDEEEVTYDHARQALDRVALKLGGEYLAAPLFQYLQQMITSTEWRERFAAMMALSSAAEGCADVLIGEIPKILDMVIPLINDPHPRVQYGCCNVLGQISTDFSPFIQRTAHDRILPALISKLTSECTSRVQTHAAAALVNFSEFASKDILEPYLDSLLTNLLVLLQSNKLYVQEQALTTIAFIAEAAKNKFIKYYDTLMPLLLNVLKVNNKDNSVLKGKCMECATLIGFAVGKEKFHEHSQELISILVALQNSDIDEDDALRSYLEQSWSRICRILGDDFVPLLPIVIPPLLITAKATQDVGLIEEEEAANFQQYPDWDVVQVQGKHIAIHTSVLDDKVSAMELLQSYATLLRGQFAVYVKEVMEEIALPSLDFYLHDGVRAAGATLIPILLSCLLAATGTQNEELVLLWHKASSKLIGGLMSEPMPEITQVYHNSLVNGIKVMGDNCLSEDQLAAFTKGVSANLTDTYERMQDRHGDGDEYNENIDEEEDFTDEDLLDEINKSIAAVLKTTNGHYLKNLENIWPMINTFLLDNEPILVIFALVVIGDLIQYGGEQTASMKNAFIPKVTECLISPDARIRQAASYIIGVCAQYAPSTYADVCIPTLDTLVQIVDFPGSKLEENRSSTENASAAIAKILYAYNSNIPNVDTYTANWFKTLPTITDKEAASFNYQFLSQLIENNSPIVCAQSNISAVVDSVIQALNERSLTEREGQTVISSVKKLLGFLPSSDAMAIFNRYPADIMEKVHKWFA
B3: Rps2(76–145)-TurboID [S. cerevisiae] / Pse1 [S. cerevisiae (endogenous in the yeast strains)] (parent complex)
chain 1: LQDEVMNIKPVQKQTRAGQRTRFKAVVVVGDSNGHVGLGIKTAKEVAGAIRAGIIIAKLSVIPIRRGYWG
chain 2: B2 chain 2

Variants of B1 are the subject of one experiment. Nature of the experiment: TurboID-based proximity labeling; parent: 5.9; read off a plot.
Turning to chain 1 MSAPEAQQQKRGGFGGRNRGRPNRRGPRNTEEKGWVPVTKLGRLVKAGKITTIEEIFLHSLPVKEFQIIDTLLPGLQDEVMNIKPVQKQTRAGQATAFAAVVVVGDSNGHVGLGIKTAKEVAGAIRAGIIIAKLSVIPIRRGYWG [chain 1 R95A, chain 1 R97A, chain 1 K99A], the enrichment was ~5.9 log2 fold change vs controls.

Variants of B1 are the subject of a further experiment. Nature of the experiment: TurboID-based proximity labeling; parent: 210; read off a plot.
chain 1 MSAPEAQQQKRGGFGGRNRGRPNRRGPRNTEEKGWVPVTKLGRLVKAGKITTIEEIFLHSLPVKEFQIIDTLLPGLQDEVMNIKPVQKQTRAGQATAFAAVVVVGDSNGHVGLGIKTAKEVAGAIRAGIIIAKLSVIPIRRGYWG [chain 1 R95A, chain 1 R97A, chain 1 K99A]: the response was approximately 260 normalized iBAQ.

The next experiment covers variants of B2. The experiment is described as follows: TurboID-based proximity labeling; parent: 2; read off a plot.
For the variant chain 1 MSAPEAQQQKRGGFGGRNRGRPNRRGPRNTEEKGWVPVTKLGRLVKAGKITTIEEIFLHSLPVKEFQIIDTLLPGLQDEVMNIKPVQKQTRAGQATAFAAVVVVGDSNGHVGLGIKTAKEVAGAIRAGIIIAKLSVIPIRRGYWG [chain 1 R95A, chain 1 R97A, chain 1 K99A], the enrichment is ~0.9 log2 fold change vs controls.

A further experiment covers variants of B2. The experiment is described as follows: TurboID-based proximity labeling; parent: 30; read off a plot.
Consider chain 1 MSAPEAQQQKRGGFGGRNRGRPNRRGPRNTEEKGWVPVTKLGRLVKAGKITTIEEIFLHSLPVKEFQIIDTLLPGLQDEVMNIKPVQKQTRAGQATAFAAVVVVGDSNGHVGLGIKTAKEVAGAIRAGIIIAKLSVIPIRRGYWG [chain 1 R95A, chain 1 R97A, chain 1 K99A], for which the response was approximately 26 normalized iBAQ.

The next experiment covers variants of B3. The experiment is described as follows: TurboID-based proximity labeling; baits expressed from plasmid under the copper-inducible CUP1 promoter; parent: 3.1; read off a plot.
Consider chain 1 LQDEVMNIKPVQKQTRAGQATAFAAVVVVGDSNGHVGLGIKTAKEVAGAIRAGIIIAKLSVIPIRRGYWG [chain 1 R20A, chain 1 R22A, chain 1 K24A], for which the enrichment is ~-0.4 log2 fold change vs controls.

The variants in a further experiment derive from B3. The experiment is described as follows: TurboID-based proximity labeling; baits expressed from plasmid under the copper-inducible CUP1 promoter; parent: 100; read off a plot.
In the case of chain 1 LQDEVMNIKPVQKQTRAGQATAFAAVVVVGDSNGHVGLGIKTAKEVAGAIRAGIIIAKLSVIPIRRGYWG [chain 1 R20A, chain 1 R22A, chain 1 K24A], the response is approximately 9 normalized iBAQ.
